For two molecules, EC50 and reduction in receptor binding affinity (against the HIR Ab) results are on record in patent US20180251535A1 (ARMAGEN, published 2018).

The target in assay [1] is human insulin receptor extracellular domain (HIR ECD) (human) (UniProt P06213). The experiment in a line: ELISA, HIR ECD plated, detection with biotinylated goat anti-human IgG. In general terms: In an ELISA, binding on a coated surface is turned into a signal by an enzyme label.
The target is the same in assay [2]. The experiment in a line: ELISA, HIR ECD plated.
For assay [3], the target named is T1, human insulin receptor extracellular domain (HIR ECD) (human, UniProt P06213 28-956, limits assumed).
T1 construct: extracellular domain; Purified on a wheat germ agglutinin column from serum free medium of CHO cells permanently transfected with the HIR ECD (Coloma et al. 2000)
The experiment in a line: ELISA, HIR ECD plated, same methods as for FIG. 11. Here is the method:
(§1) The affinity of the fusion protein for the HIR extracellular domain (ECD) was determined with an ELISA. CHO cells permanently transfected with the HIR ECD were grown in serum free media (SFM), and the HIR ECD was purified with a wheat germ agglutinin affinity column, as previously described in Coloma et al. (2000) Pharm Res, 17:266-274. The HIR ECD was plated on Nunc-Maxisorb 96 well dishes and the binding of the HIR Ab, or the HIR Ab-IDS fusion protein, to the HIR ECD was detected with a biotinylated goat anti-human IgG (H+L) secondary antibody, followed by avidin and biotinylated peroxidase (Vector Labs, Burlingame, CA). The concentration of either HIR Ab or HIR Ab-IDS fusion protein that gave 50% maximal binding was determined with a non-linear regression analysis.

For assay [4], the target named is T1, human insulin receptor extracellular …. The experiment in a line: ELISA, HIR ECD plated on Nunc-Maxisorb wells, detection with biotinylated goat anti-human IgG. Here is the method:
as §1

The EC50 is the midpoint of the concentration-response curve. As to “GUSB-HIR Ab fusion protein (GUSB fused to the amino terminus of the HIR Ab heavy chain) (from UniProt P08236 23-633)”, the EC50 in assay [1] came out at 4800 pM. The molecule further had a reduction in receptor binding affinity (against the HIR Ab) in assay [2] of 95%.

B1: chimeric HIRMAb (chimeric monoclonal antibody to the human insulin receptor) (antibody, human IgG1, kappa, V domains shown)
VH: QVQLQQSGPELVKPGALVKISCKASGYTFTNYDIHWVKQRPGQGLEWIGWIYPGDGSTKYNEKFKGKATLTADKSSSTAYMHLSSLTSEKSAVYFCAREWAYWGQGTLVTVSA
VL: DIQMTQSPSSLSASLGERVSLTCRASQDIGGNLYWLQQGPDGTIKRLIYATSSLDSGVPKRFSGSRSGSDYSLTISSLESEDFVDYYCLQYSSSPWTFGGGTKMEIKR
notes: Human IgG1 constant region, kappa light chain; also called HIR Ab; chimeric HIR Ab
As for B1, the EC50 in assay [3] came to 410 pM; in assay [4] it was 320 pM.
